In US20130281677A1 (CEPHALON AUSTRALIA, published 2013):

Columns and labels:
[1] = molecular target: T1, human FcRn extracellular domain / beta2 microglobulin complex (human, UniProt P55899 24-290; P61769 21-119); test: ELISA, pH 6.0; FcRn/β2m complex captured by anti-β2m antibody, antibody titrated, anti-human kappa HRP detection
T1 construct: range 24-290;range 21-119; Both chains were co-expressed in HEK293 6E cells and purified on IgG-Sepharose; In the ELISA the complex was captured by a coated anti-β2 microglobulin antibody at pH 6.0; also called FcRn/β2 microglobulin complex
Description: (§1) Maxisorp 96-well plates (Thermo Fisher Scientific, Rochester, N.Y.) were coated with 5 ug/ml anti-β₂ microglobulin monoclonal antibody. Wells were then washed with PBS and treated with Superblock blocking solution (Thermo Fisher Scientific, Rockford, Ill.). Then, the FcRn/β₂ microglobulin complex was diluted to 5 ug/ml in SPBS6T (50 mM sodium phosphate buffer pH 6.0, 150 mM NaCl, 0.05% Tween-20) and added to allow for capture by the coated anti-β₂ microglobulin antibody for 60 min at room temperature. Wells were then washed by SPBS6T and then exposed to hu39D10 or its the variants in SPBS6T and incubated for 60 min at room temperature. The hu39D10/FcRn complex formed by the incubation was probed with an F(ab′)2 fragment of an anti-human kappa HRP conjugate (SourthernBiotechnology, Birmingham, Ala.; 1/5000 dilution in SPBS6T) for 30 min at room temperature. After washing with SPBS6T, 100 ul of TMB (Sigma) was loaded into each well for signal detection. […] The affinity of the IgG variants to FcRn was calculated and plotted using Prism software by GraphPad Software (La Jolla, Calif.).

[2] = molecular target: T1, human FcRn extracellular domain / beta2 …; test: ELISA, pH 6.0; ratio of EC50 values against hu39D10 with native IgG4 Fc
Description: as §1

Row | EC50 [1] | fold increase in affinity for human FcRn against hu39D10 [2] | Binder
1 | 3.8 nM | – | hu39D10 (humanized 39D10, anti-IL-5 antibody) with native human IgG4 Fc / kappa (antibody, Full IgG4/kappa expressed in HEK293 6E cells; also called CTIL-5-10gH/-gL6; hu39D10 with unmodified Fc; not shown: human IgG4 heavy chain constant region, native (cloned from Quickclone cDNA library)) heavy: not shown light: DIQMTQSPSSLSASVGDRVTITCLASEGISSYLAWYQQKPGKAPKLLIYGANSLQTGVPSRFSGSGSATDYTLTISSLQPEDFATYYCQQSYKFPNTFGQGTKVEVKRTVAAPSVFIFPPSDEQLKSGTASVVCLLNNFYPREAKVQWKVDNALQSGNSQESVTEQDSKDSTYSLSSTLTLSKADYEKHKVYACEVTHQGLSSPVTKSFNRGEC
2 | 0.81 nM | – | hu39D10 with the YTE mutations and the S228P hinge mutation (YTE+S228P) in IgG4 (antibody, also called hu39D10 with the 4 amino acid substitutions; S228P+YTE variant) heavy: EVQLVESGGGLVQPGGSLRLSCAVSGLSLTSNSVNWIRQAPGKGLEWVGLIWSNGDTDYNSAIKSRFTISRDTSKSTVYLQMNSLRAEDTAVYYCAREYYGYFDYWGQGTLVTVSSASTKGPSVFPLAPCSRSTSESTAALGCLVKDYFPEPVTVSWNSGALTSGVHTFPAVLQSSGLYSLSSVVTVPSSSLGTKTYTCNVDHKPSNTKVDKRVESKYGPPCPPCPAPEFLGGPSVFLFPPKPKDTLYITREPEVTCVVVDVSQEDPEVQFNWYVDGVEVHNAKTKPREEQFNSTYRVVSVLTVLHQDWLNGKEYKCKVSNKGLPSSIEKTISKAKGQPREPQVYTLPPSQEEMTKNQVSLTCLVKGFYPSDIAVEWESNGQPENNYKTTPPVLDSDGSFFLYSRLTVDKSRWQEGNVFSCSVMHEALHNHYTQKSLSLSLGK light: DIQMTQSPSSLSASVGDRVTITCLASEGISSYLAWYQQKPGKAPKLLIYGANSLQTGVPSRFSGSGSATDYTLTISSLQPEDFATYYCQQSYKFPNTFGQGTKVEVKRTVAAPSVFIFPPSDEQLKSGTASVVCLLNNFYPREAKVQWKVDNALQSGNSQESVTEQDSKDSTYSLSSTLTLSKADYEKHKVYACEVTHQGLSSPVTKSFNRGEC
3 | 0.81 nM | 4.7 fold | hu39D10 with the YTE mutations (M252Y, S254T, T256E) in the IgG4 Fc (antibody, name in EU numbering, domain: IgG4 heavy chain constant region; Substitution positions are EU numbers, not positions on the UniProt entry; also called hu39D10 YTE variant) heavy: EVQLVESGGGLVQPGGSLRLSCAVSGLSLTSNSVNWIRQAPGKGLEWVGLIWSNGDTDYNSAIKSRFTISRDTSKSTVYLQMNSLRAEDTAVYYCAREYYGYFDYWGQGTLVTVSSASTKGPSVFPLAPCSRSTSESTAALGCLVKDYFPEPVTVSWNSGALTSGVHTFPAVLQSSGLYSLSSVVTVPSSSLGTKTYTCNVDHKPSNTKVDKRVESKYGPPCPSCPAPEFLGGPSVFLFPPKPKDTLYITREPEVTCVVVDVSQEDPEVQFNWYVDGVEVHNAKTKPREEQFNSTYRVVSVLTVLHQDWLNGKEYKCKVSNKGLPSSIEKTISKAKGQPREPQVYTLPPSQEEMTKNQVSLTCLVKGFYPSDIAVEWESNGQPENNYKTTPPVLDSDGSFFLYSRLTVDKSRWQEGNVFSCSVMHEALHNHYTQKSLSLSLGK light: DIQMTQSPSSLSASVGDRVTITCLASEGISSYLAWYQQKPGKAPKLLIYGANSLQTGVPSRFSGSGSATDYTLTISSLQPEDFATYYCQQSYKFPNTFGQGTKVEVKRTVAAPSVFIFPPSDEQLKSGTASVVCLLNNFYPREAKVQWKVDNALQSGNSQESVTEQDSKDSTYSLSSTLTLSKADYEKHKVYACEVTHQGLSSPVTKSFNRGEC
